Experimental findings from paper PMC8533160, “First Crystal Structure of Bacterial Oligopeptidase B in an Intermediate State: The Roles of the Hinge Region Modification and Spermine” (Biology, 2021) are described below.

A word on the inhibition: it is the change of the read-out against control, counted positive when it falls. What is called Km is the concentration of substrate that gives half-maximal velocity. A word on the kcat: it is the maximal rate divided by the concentration of active sites. Usually kcat/Km stands for the second-order rate constant that governs catalysis at low substrate concentration.

For data set [1], the target named is T1, PSP (oligopeptidase B from Serratia proteomaculans) (Serratia proteamaculans, UniProt B3VI58).
T1 construct: gene opdB; recombinant from E. coli BL21(DE3); 685 residues with tag; 76 kDa; monomer
Briefly: differential scanning calorimetry. It counts as binding. The following applies: 2 mM spermine; 25 mM Na-phosphate, pH 7.8; 2 mg/mL protein.

Data set [2] deals with T1, PSP (oligopeptidase B from Serratia proteomaculans). The experiment in a line: initial rate of BAPNA hydrolysis. It is filed as biochemical. The following applies: read-out: % inhibition at 5 mM.
The subject of data set [3] is N=C(N)NCCC[C@H](NC(=O)[C@H](CCCCN)NC(=O)OCc1ccccc1)C(=O)Nc1ccc([N+](=O)[O-])cc1. The experiment in a line: purified protein. The conditions noted are these: 0.1 M Tris-HCl, pH 8.0, 2% DMSO, 25 °C. It is filed as biochemical, Serratia proteamaculans.
Data set [4] deals with N=C(N)NCCC[C@H](NC(=O)OCc1ccccc1)C(=O)N[C@@H](CCCNC(=N)N)C(=O)Nc1ccc([N+](=O)[O-])cc1. The experiment in a line: purified protein. The conditions noted are these: 0.1 M Tris-HCl, pH 8.0, 2% DMSO, 25 °C. It counts as biochemical, Serratia proteamaculans.
Data set [5] deals with N=C(N)NCCCC(NC(=O)c1ccccc1)C(=O)Nc1ccc([N+](=O)[O-])cc1. Briefly: purified protein. It counts as biochemical, Serratia proteamaculans. The following applies: 0.1 M Tris-HCl, pH 8.0, 2% DMSO, 25 °C.

Take `NCCCNCCCCNCCCN` [spermine]: the dTmax in data set [1] was determined as 1 degree. Besides, the inhibition at 5000 µM in data set [2] came to 20%.
As for “PSP (oligopeptidase B from Serratia proteomaculans) (Serratia proteamaculans)”, the Km in data set [3] turned out to be 20.8 µM; in data set [4], 4.35 µM; in data set [5], 78.1 µM. In addition, the figures for the catalytic constant (kcat) in data set [3], in data set [4] and in data set [5] were 50.8 s⁻¹, 36.4 s⁻¹ and 13.2 s⁻¹, respectively. The results for the kcat/Km in data set [3], in data set [4] and in data set [5] were 2.43e+06 M⁻¹ s⁻¹, 8.35e+06 M⁻¹ s⁻¹ and 168000 M⁻¹ s⁻¹, respectively.
